{
  "source": "the Human Domainome abundance scans (Beltran et al. 2025)",
  "note": "± gives the uncertainty stated by the source.",
  "data": [
    {"test": "abundance fitness (aPCA) (normalised: wild type 0, dead -1); higher = more abundant; growth selection in yeast, the domain comes from the species named", "settings": "Homo sapiens", "values": [
      {"substance": "NEDD4-like E3 ubiquitin-protein ligase WWP2 D492Q, O00308", "abundance fitness": "-0.043 ± 0.088"},
      {"substance": "NEDD4-like E3 ubiquitin-protein ligase WWP2 D492R, O00308", "abundance fitness": "-0.223 ± 0.051"},
      {"substance": "NEDD4-like E3 ubiquitin-protein ligase WWP2 D492S, O00308", "abundance fitness": "-0.071 ± 0.053"},
      {"substance": "NEDD4-like E3 ubiquitin-protein ligase WWP2 D492T, O00308", "abundance fitness": "-0.085 ± 0.073"},
      {"substance": "NEDD4-like E3 ubiquitin-protein ligase WWP2 D492V, O00308", "abundance fitness": "-0.143 ± 0.049"},
      {"substance": "NEDD4-like E3 ubiquitin-protein ligase WWP2 D492W, O00308", "abundance fitness": "-0.319 ± 0.033"},
      {"substance": "NEDD4-like E3 ubiquitin-protein ligase WWP2 D492Y, O00308", "abundance fitness": "-0.189 ± 0.033"},
      {"substance": "NEDD4-like E3 ubiquitin-protein ligase WWP2 E443A, O00308", "abundance fitness": "-0.065 ± 0.032"},
      {"substance": "NEDD4-like E3 ubiquitin-protein ligase WWP2 E443C, O00308", "abundance fitness": "0.004 ± 0.076"},
      {"substance": "NEDD4-like E3 ubiquitin-protein ligase WWP2 E443D, O00308", "abundance fitness": "-0.06 ± 0.075"},
      {"substance": "NEDD4-like E3 ubiquitin-protein ligase WWP2 E443F, O00308", "abundance fitness": "-0.287 ± 0.088"},
      {"substance": "NEDD4-like E3 ubiquitin-protein ligase WWP2 E443G, O00308", "abundance fitness": "-0.091 ± 0.038"},
      {"substance": "NEDD4-like E3 ubiquitin-protein ligase WWP2 E443H, O00308", "abundance fitness": "-0.082 ± 0.044"},
      {"substance": "NEDD4-like E3 ubiquitin-protein ligase WWP2 E443I, O00308", "abundance fitness": "-0.093 ± 0.073"},
      {"substance": "NEDD4-like E3 ubiquitin-protein ligase WWP2 E443K, O00308", "abundance fitness": "-0.062 ± 0.073"},
      {"substance": "NEDD4-like E3 ubiquitin-protein ligase WWP2 E443L, O00308", "abundance fitness": "-0.183 ± 0.055"},
      {"substance": "NEDD4-like E3 ubiquitin-protein ligase WWP2 E443M, O00308", "abundance fitness": "-0.14 ± 0.055"},
      {"substance": "NEDD4-like E3 ubiquitin-protein ligase WWP2 E443N, O00308", "abundance fitness": "-0.019 ± 0.08"},
      {"substance": "NEDD4-like E3 ubiquitin-protein ligase WWP2 E443P, O00308", "abundance fitness": "-0.065 ± 0.064"},
      {"substance": "NEDD4-like E3 ubiquitin-protein ligase WWP2 E443Q, O00308", "abundance fitness": "-0.205 ± 0.076"},
      {"substance": "NEDD4-like E3 ubiquitin-protein ligase WWP2 E443R, O00308", "abundance fitness": "-0.174 ± 0.042"},
      {"substance": "NEDD4-like E3 ubiquitin-protein ligase WWP2 E443T, O00308", "abundance fitness": "-0.248 ± 0.085"},
      {"substance": "NEDD4-like E3 ubiquitin-protein ligase WWP2 E443V, O00308", "abundance fitness": "-0.087 ± 0.036"},
      {"substance": "NEDD4-like E3 ubiquitin-protein ligase WWP2 E443W, O00308", "abundance fitness": "-0.185 ± 0.039"},
      {"substance": "NEDD4-like E3 ubiquitin-protein ligase WWP2 E443Y, O00308", "abundance fitness": "0.006 ± 0.058"},
      {"substance": "NEDD4-like E3 ubiquitin-protein ligase WWP2 E451A, O00308", "abundance fitness": "-0.153 ± 0.056"},
      {"substance": "NEDD4-like E3 ubiquitin-protein ligase WWP2 E451C, O00308", "abundance fitness": "-0.227 ± 0.063"},
      {"substance": "NEDD4-like E3 ubiquitin-protein ligase WWP2 E451F, O00308", "abundance fitness": "-0.572 ± 0.083"},
      {"substance": "NEDD4-like E3 ubiquitin-protein ligase WWP2 E451G, O00308", "abundance fitness": "-0.287 ± 0.037"},
      {"substance": "NEDD4-like E3 ubiquitin-protein ligase WWP2 E451H, O00308", "abundance fitness": "-0.54 ± 0.089"},
      {"substance": "NEDD4-like E3 ubiquitin-protein ligase WWP2 E451I, O00308", "abundance fitness": "-0.503 ± 0.091"},
      {"substance": "NEDD4-like E3 ubiquitin-protein ligase WWP2 E451K, O00308", "abundance fitness": "-0.472 ± 0.076"},
      {"substance": "NEDD4-like E3 ubiquitin-protein ligase WWP2 E451L, O00308", "abundance fitness": "-0.415 ± 0.053"},
      {"substance": "NEDD4-like E3 ubiquitin-protein ligase WWP2 E451M, O00308", "abundance fitness": "-0.122 ± 0.056"},
      {"substance": "NEDD4-like E3 ubiquitin-protein ligase WWP2 E451N, O00308", "abundance fitness": "-0.342 ± 0.065"},
      {"substance": "NEDD4-like E3 ubiquitin-protein ligase WWP2 E451P, O00308", "abundance fitness": "-1.34 ± 0.3"},
      {"substance": "NEDD4-like E3 ubiquitin-protein ligase WWP2 E451Q, O00308", "abundance fitness": "0.066 ± 0.07"},
      {"substance": "NEDD4-like E3 ubiquitin-protein ligase WWP2 E451S, O00308", "abundance fitness": "-0.072 ± 0.032"},
      {"substance": "NEDD4-like E3 ubiquitin-protein ligase WWP2 E451T, O00308", "abundance fitness": "-0.229 ± 0.045"},
      {"substance": "NEDD4-like E3 ubiquitin-protein ligase WWP2 E451V, O00308", "abundance fitness": "-0.113 ± 0.031"},
      {"substance": "NEDD4-like E3 ubiquitin-protein ligase WWP2 E451W, O00308", "abundance fitness": "-1.18 ± 0.18"},
      {"substance": "NEDD4-like E3 ubiquitin-protein ligase WWP2 E451Y, O00308", "abundance fitness": "-0.378 ± 0.071"},
      {"substance": "NEDD4-like E3 ubiquitin-protein ligase WWP2 E457A, O00308", "abundance fitness": "-0.081 ± 0.044"},
      {"substance": "NEDD4-like E3 ubiquitin-protein ligase WWP2 E457C, O00308", "abundance fitness": "-0.155 ± 0.073"},
      {"substance": "NEDD4-like E3 ubiquitin-protein ligase WWP2 E457D, O00308", "abundance fitness": "-0.068 ± 0.062"},
      {"substance": "NEDD4-like E3 ubiquitin-protein ligase WWP2 E457F, O00308", "abundance fitness": "-0.253 ± 0.074"},
      {"substance": "NEDD4-like E3 ubiquitin-protein ligase WWP2 E457G, O00308", "abundance fitness": "-0.116 ± 0.037"},
      {"substance": "NEDD4-like E3 ubiquitin-protein ligase WWP2 E457H, O00308", "abundance fitness": "-0.089 ± 0.035"},
      {"substance": "NEDD4-like E3 ubiquitin-protein ligase WWP2 E457I, O00308", "abundance fitness": "-0.285 ± 0.042"},
      {"substance": "NEDD4-like E3 ubiquitin-protein ligase WWP2 E457K, O00308", "abundance fitness": "-0.118 ± 0.056"},
      {"substance": "NEDD4-like E3 ubiquitin-protein ligase WWP2 E457L, O00308", "abundance fitness": "-0.204 ± 0.056"},
      {"substance": "NEDD4-like E3 ubiquitin-protein ligase WWP2 E457M, O00308", "abundance fitness": "-0.349 ± 0.071"},
      {"substance": "NEDD4-like E3 ubiquitin-protein ligase WWP2 E457N, O00308", "abundance fitness": "-0.189 ± 0.068"},
      {"substance": "NEDD4-like E3 ubiquitin-protein ligase WWP2 E457P, O00308", "abundance fitness": "-0.5 ± 0.075"},
      {"substance": "NEDD4-like E3 ubiquitin-protein ligase WWP2 E457Q, O00308", "abundance fitness": "-0.022 ± 0.056"},
      {"substance": "NEDD4-like E3 ubiquitin-protein ligase WWP2 E457R, O00308", "abundance fitness": "-0.251 ± 0.061"},
      {"substance": "NEDD4-like E3 ubiquitin-protein ligase WWP2 E457S, O00308", "abundance fitness": "-0.201 ± 0.061"},
      {"substance": "NEDD4-like E3 ubiquitin-protein ligase WWP2 E457T, O00308", "abundance fitness": "-0.081 ± 0.067"},
      {"substance": "NEDD4-like E3 ubiquitin-protein ligase WWP2 E457V, O00308", "abundance fitness": "-0.188 ± 0.031"},
      {"substance": "NEDD4-like E3 ubiquitin-protein ligase WWP2 E457W, O00308", "abundance fitness": "-0.624 ± 0.096"},
      {"substance": "NEDD4-like E3 ubiquitin-protein ligase WWP2 E457Y, O00308", "abundance fitness": "-0.216 ± 0.057"},
      {"substance": "NEDD4-like E3 ubiquitin-protein ligase WWP2 E480A, O00308", "abundance fitness": "-0.08 ± 0.034"},
      {"substance": "NEDD4-like E3 ubiquitin-protein ligase WWP2 E480C, O00308", "abundance fitness": "-0.611 ± 0.043"},
      {"substance": "NEDD4-like E3 ubiquitin-protein ligase WWP2 E480D, O00308", "abundance fitness": "0.015 ± 0.06"},
      {"substance": "NEDD4-like E3 ubiquitin-protein ligase WWP2 E480F, O00308", "abundance fitness": "-0.239 ± 0.062"},
      {"substance": "NEDD4-like E3 ubiquitin-protein ligase WWP2 E480G, O00308", "abundance fitness": "-0.038 ± 0.033"},
      {"substance": "NEDD4-like E3 ubiquitin-protein ligase WWP2 E480H, O00308", "abundance fitness": "0.027 ± 0.068"},
      {"substance": "NEDD4-like E3 ubiquitin-protein ligase WWP2 E480I, O00308", "abundance fitness": "-0.042 ± 0.047"},
      {"substance": "NEDD4-like E3 ubiquitin-protein ligase WWP2 E480K, O00308", "abundance fitness": "-0.019 ± 0.05"},
      {"substance": "NEDD4-like E3 ubiquitin-protein ligase WWP2 E480L, O00308", "abundance fitness": "-0.072 ± 0.042"},
      {"substance": "NEDD4-like E3 ubiquitin-protein ligase WWP2 E480M, O00308", "abundance fitness": "-0.058 ± 0.048"},
      {"substance": "NEDD4-like E3 ubiquitin-protein ligase WWP2 E480N, O00308", "abundance fitness": "-0.126 ± 0.068"},
      {"substance": "NEDD4-like E3 ubiquitin-protein ligase WWP2 E480P, O00308", "abundance fitness": "-0.141 ± 0.062"},
      {"substance": "NEDD4-like E3 ubiquitin-protein ligase WWP2 E480Q, O00308", "abundance fitness": "-0.053 ± 0.04"},
      {"substance": "NEDD4-like E3 ubiquitin-protein ligase WWP2 E480R, O00308", "abundance fitness": "-0.078 ± 0.038"},
      {"substance": "NEDD4-like E3 ubiquitin-protein ligase WWP2 E480S, O00308", "abundance fitness": "-0.15 ± 0.053"},
      {"substance": "NEDD4-like E3 ubiquitin-protein ligase WWP2 E480T, O00308", "abundance fitness": "-0.119 ± 0.062"},
      {"substance": "NEDD4-like E3 ubiquitin-protein ligase WWP2 E480V, O00308", "abundance fitness": "-0.064 ± 0.035"},
      {"substance": "NEDD4-like E3 ubiquitin-protein ligase WWP2 E480Y, O00308", "abundance fitness": "0.036 ± 0.065"},
      {"substance": "NEDD4-like E3 ubiquitin-protein ligase WWP2 F462A, O00308", "abundance fitness": "-1.02 ± 0.067"},
      {"substance": "NEDD4-like E3 ubiquitin-protein ligase WWP2 F462C, O00308", "abundance fitness": "-0.88 ± 0.054"},
      {"substance": "NEDD4-like E3 ubiquitin-protein ligase WWP2 F462D, O00308", "abundance fitness": "-0.675 ± 0.084"},
      {"substance": "NEDD4-like E3 ubiquitin-protein ligase WWP2 F462G, O00308", "abundance fitness": "-0.8 ± 0.054"},
      {"substance": "NEDD4-like E3 ubiquitin-protein ligase WWP2 F462I, O00308", "abundance fitness": "-1.03 ± 0.16"},
      {"substance": "NEDD4-like E3 ubiquitin-protein ligase WWP2 F462K, O00308", "abundance fitness": "-0.789 ± 0.16"},
      {"substance": "NEDD4-like E3 ubiquitin-protein ligase WWP2 F462L, O00308", "abundance fitness": "-0.9 ± 0.061"},
      {"substance": "NEDD4-like E3 ubiquitin-protein ligase WWP2 F462M, O00308", "abundance fitness": "-0.66 ± 0.08"},
      {"substance": "NEDD4-like E3 ubiquitin-protein ligase WWP2 F462N, O00308", "abundance fitness": "-0.945 ± 0.082"}
    ]}
  ]
}
